No end group written: not given here. fluorescein = fluorescein label
Biological target: T1, Escherichia coli single-stranded DNA binding (SSB) protein, wild type (E. coli, UniProt P0AGE0 1-178)
T1 construct: E. coli SSB, wild type; OB domain aa 1-112, IDL aa 113-177 with the CTP aa 169-177; homotetramer of 19-kDa subunits; Construct as described in Harami et al. (2020); also called SSB-WT; WT; source: E. coli ER2566, purified (Polymin P, ammonium sulfate, heparin, MonoQ)
Experiment: fluorescence polarisation; 15 nM flu-CTP titrated with SSB or SSBdC; standard LLPS buffer (20 mM Tris-OAc pH 7.5, 50 mM KGlu, 5 mM Mg(OAc)2), no PEG; 25°C; quadratic binding equation
Conditions: both partners purified

T1 sequence (P0AGE0 whole entry, the tested form may be a part): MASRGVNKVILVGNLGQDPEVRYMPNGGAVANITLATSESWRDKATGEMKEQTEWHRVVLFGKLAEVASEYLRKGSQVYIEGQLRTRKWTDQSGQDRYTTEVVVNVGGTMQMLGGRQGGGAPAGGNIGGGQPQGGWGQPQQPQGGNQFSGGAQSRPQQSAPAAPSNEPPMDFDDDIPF

B1: fluorescein-labeled SSB C-terminal peptide (peptide)
peptide: fluorescein-MDFDDDIPF
notes: also called flu-CTP; labeled C-terminal peptide
Kd: > 100 µM
